IntAct's records for PubMed 19118384

B1: FAS-associated death domain protein (Homo sapiens), Q13158 (parent)
chain: MDPFLVLLHSVSSSLSSSELTELKFLCLGRVGKRKLERVQSGLDLFSMLLEQNDLEPGHTELLRELLASLRRHDLLRRVDDFEAGAAAGAAPGEEDLCAAFNVICDNVGKDWRRLARQLKVSDTKIDSIEDRYPRNLTERVRESLRIWKNTEKENATVAHLVGALRSCQMNLVADLVQEVQQARDLQNRSGAMSPMSWNSDASTSEAS

Variants of: B1
Details: with FAS

Variant | effect of a mutation on the interaction
MDPFLVLLHSVSSSLSSSELTELKFLCLGRVGKRKLERVQSGLDLFSMLLEQNDLEPGHTELLRELLASLRRHDLLRRVDDFEAGAAAGAAPGEEDLCAAFNVICDNVGKDWRRLARQLKVSDTKIDSIEDRYPRNLTERVRESLRIWKNTEKENATVAHLVGALRSCQMNEVADLVQEVQQARDLQNRSGAMSPMSWNSDASTSEAS [L172E] | decreasing interaction
